One block for each binder: values may come before it. Starred links: 1 amine or outer side, 2 acyl side, 3 side chain; linkers in the order of their positions; H or OH if unused. Positions of bridges follow the written chain, without caps; N, C: chain ends. Non-standard residues stand in square brackets, D forms with d. St = two pentenyl-alanine olefin side chains, each crosslinked to another residue (stitch), C=CCCCC(CCCC=C)(N[*:1])C(=O)[*:2]; Phe(4-F) = N[C@@H](Cc1ccc(F)cc1)C(=O)O; 2Nal = N[C@@H](Cc1ccc2ccccc2c1)C(=O)O; hPhe = N[C@@H](CCc1ccccc1)C(=O)O; R8 = C=CCCCCCC[C@@](C)(N)C(=O)O; Cha = N[C@@H](CC1CCCCC1)C(=O)O; S8 = C=CCCCCCC[C@](C)(N)C(=O)O; S5 = C=CCCC[C@](C)(N)C(=O)O
How the values were obtained:
Experiment in all cases: Ki; method not stated; unit not printed (nM per Table 6)
BCL-2 = molecular target: T1, BCL-2 (UniProt P10415 1-217, limits assumed)
T1 construct: Target of the Ki columns

BCL-XL = molecular target: T2, BCL-XL (UniProt Q07817 1-209)
T2 construct: Target of the Ki columns

MCL-1 = molecular target: T3, MCL-1 (UniProt Q07820 172-327, limits assumed)
T3 construct: Target of the Ki columns; also called Myeloid cell leukemia 1
T3 sequence (Q07820 172-327 limits assumed): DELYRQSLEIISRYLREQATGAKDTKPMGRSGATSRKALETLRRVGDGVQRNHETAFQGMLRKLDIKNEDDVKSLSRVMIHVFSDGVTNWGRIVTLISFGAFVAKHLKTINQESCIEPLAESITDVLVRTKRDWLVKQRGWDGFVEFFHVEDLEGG

T1 sequence (P10415 1-217 limits assumed): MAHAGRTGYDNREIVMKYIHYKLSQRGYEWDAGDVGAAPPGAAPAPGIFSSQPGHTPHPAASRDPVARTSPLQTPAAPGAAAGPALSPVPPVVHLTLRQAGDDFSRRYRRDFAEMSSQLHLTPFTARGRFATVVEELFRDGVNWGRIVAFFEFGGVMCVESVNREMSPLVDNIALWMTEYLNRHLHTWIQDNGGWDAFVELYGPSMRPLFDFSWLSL
T2 sequence (Q07817 1-209): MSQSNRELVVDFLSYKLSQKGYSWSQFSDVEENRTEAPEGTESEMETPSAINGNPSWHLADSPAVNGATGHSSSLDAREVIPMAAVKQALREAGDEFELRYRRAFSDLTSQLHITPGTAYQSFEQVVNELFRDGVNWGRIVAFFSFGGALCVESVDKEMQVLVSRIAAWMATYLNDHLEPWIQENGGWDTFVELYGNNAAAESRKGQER

B1: SEQ ID NO: 1743 (peptide)
peptide: Ac-IWIAQALR[R8]IGDA[hPhe]N[S5]YYA-NH2
modifications: staple 9-16
SMILES: CC[C@H](C)[C@H](NC(C)=O)C(=O)N[C@@H](Cc1c[nH]c2ccccc12)C(=O)N[C@H](C(=O)N[C@@H](C)C(=O)N[C@@H](CCC(N)=O)C(=O)N[C@@H](C)C(=O)N[C@@H](CC(C)C)C(=O)N[C@@H](CCCNC(=N)N)C(=O)N[C@]1(C)CCCCCCC=CCCC[C@@](C)(C(=O)N[C@@H](Cc2ccc(O)cc2)C(=O)N[C@@H](Cc2ccc(O)cc2)C(=O)N[C@@H](C)C(N)=O)NC(=O)[C@H](CC(N)=O)NC(=O)[C@H](CCc2ccccc2)NC(=O)[C@H](C)NC(=O)[C@H](CC(=O)O)NC(=O)CNC(=O)[C@H]([C@@H](C)CC)NC1=O)[C@@H](C)CC
Ki (BCL-2): 38.9 nM | Ki (BCL-XL): 16.6 nM | Ki (MCL-1): 2.7 nM

B5: SEQ ID NO: 1769 (peptide)
peptide: Ac-IWIAQALR[R8]IGDAFN[S5][Phe(4-F)]YA-NH2
modifications: staple 9-16
SMILES: CC[C@H](C)[C@H](NC(C)=O)C(=O)N[C@@H](Cc1c[nH]c2ccccc12)C(=O)N[C@H](C(=O)N[C@@H](C)C(=O)N[C@@H](CCC(N)=O)C(=O)N[C@@H](C)C(=O)N[C@@H](CC(C)C)C(=O)N[C@@H](CCCNC(=N)N)C(=O)N[C@]1(C)CCCCCCC=CCCC[C@@](C)(C(=O)N[C@@H](Cc2ccc(F)cc2)C(=O)N[C@@H](Cc2ccc(O)cc2)C(=O)N[C@@H](C)C(N)=O)NC(=O)[C@H](CC(N)=O)NC(=O)[C@H](Cc2ccccc2)NC(=O)[C@H](C)NC(=O)[C@H](CC(=O)O)NC(=O)CNC(=O)[C@H]([C@@H](C)CC)NC1=O)[C@@H](C)CC
Ki (BCL-2): 200 nM | Ki (BCL-XL): 26 nM | Ki (MCL-1): 14.9 nM

B7: SEQ ID NO: 1754 (peptide)
peptide: Ac-IWIAQALR[R8]IGDAFN[S5]YAA-NH2
modifications: staple 9-16
SMILES: CC[C@H](C)[C@H](NC(C)=O)C(=O)N[C@@H](Cc1c[nH]c2ccccc12)C(=O)N[C@H](C(=O)N[C@@H](C)C(=O)N[C@@H](CCC(N)=O)C(=O)N[C@@H](C)C(=O)N[C@@H](CC(C)C)C(=O)N[C@@H](CCCNC(=N)N)C(=O)N[C@]1(C)CCCCCCC=CCCC[C@@](C)(C(=O)N[C@@H](Cc2ccc(O)cc2)C(=O)N[C@@H](C)C(=O)N[C@@H](C)C(N)=O)NC(=O)[C@H](CC(N)=O)NC(=O)[C@H](Cc2ccccc2)NC(=O)[C@H](C)NC(=O)[C@H](CC(=O)O)NC(=O)CNC(=O)[C@H]([C@@H](C)CC)NC1=O)[C@@H](C)CC
Ki (BCL-2): 102 nM | Ki (BCL-XL): 51.8 nM | Ki (MCL-1): 20.3 nM

Binder: IWIAQALRAIGDAANAYYA (N-terminal Ac; $r8 at 9 and $ at 16 (crosslinked); 2Nal at 14; C-terminal NH2) [SEQ ID NO: 1746]
Ki (BCL-2): 35.1 nM | Ki (BCL-XL): 19.1 nM | Ki (MCL-1): 4.4 nM

B8: SEQ ID NO: 1757 (peptide)
peptide: Ac-IWIAQALR[R8]IGDAFN[S5]Y[hPhe]A-NH2
modifications: staple 9-16
SMILES: CC[C@H](C)[C@H](NC(C)=O)C(=O)N[C@@H](Cc1c[nH]c2ccccc12)C(=O)N[C@H](C(=O)N[C@@H](C)C(=O)N[C@@H](CCC(N)=O)C(=O)N[C@@H](C)C(=O)N[C@@H](CC(C)C)C(=O)N[C@@H](CCCNC(=N)N)C(=O)N[C@]1(C)CCCCCCC=CCCC[C@@](C)(C(=O)N[C@@H](Cc2ccc(O)cc2)C(=O)N[C@@H](CCc2ccccc2)C(=O)N[C@@H](C)C(N)=O)NC(=O)[C@H](CC(N)=O)NC(=O)[C@H](Cc2ccccc2)NC(=O)[C@H](C)NC(=O)[C@H](CC(=O)O)NC(=O)CNC(=O)[C@H]([C@@H](C)CC)NC1=O)[C@@H](C)CC
Ki (BCL-2): 30.7 nM | Ki (BCL-XL): 12.1 nM | Ki (MCL-1): 8 nM

B11: SEQ ID NO: 1759 (peptide)
peptide: Ac-IWIAQALR[R8]IGDAFN[S5]Y[2Nal]A-NH2
modifications: staple 9-16
SMILES: CC[C@H](C)[C@H](NC(C)=O)C(=O)N[C@@H](Cc1c[nH]c2ccccc12)C(=O)N[C@H](C(=O)N[C@@H](C)C(=O)N[C@@H](CCC(N)=O)C(=O)N[C@@H](C)C(=O)N[C@@H](CC(C)C)C(=O)N[C@@H](CCCNC(=N)N)C(=O)N[C@]1(C)CCCCCCC=CCCC[C@@](C)(C(=O)N[C@@H](Cc2ccc(O)cc2)C(=O)N[C@@H](Cc2ccc3ccccc3c2)C(=O)N[C@@H](C)C(N)=O)NC(=O)[C@H](CC(N)=O)NC(=O)[C@H](Cc2ccccc2)NC(=O)[C@H](C)NC(=O)[C@H](CC(=O)O)NC(=O)CNC(=O)[C@H]([C@@H](C)CC)NC1=O)[C@@H](C)CC
Ki (BCL-2): 65.2 nM | Ki (BCL-XL): 26.1 nM | Ki (MCL-1): 8 nM

B12: SEQ ID NO: 1775 (peptide)
peptide: Ac-IWIAQALR[R8]IGDAFN[S5]AYA-NH2
modifications: staple 9-16
SMILES: CC[C@H](C)[C@H](NC(C)=O)C(=O)N[C@@H](Cc1c[nH]c2ccccc12)C(=O)N[C@H](C(=O)N[C@@H](C)C(=O)N[C@@H](CCC(N)=O)C(=O)N[C@@H](C)C(=O)N[C@@H](CC(C)C)C(=O)N[C@@H](CCCNC(=N)N)C(=O)N[C@]1(C)CCCCCCC=CCCC[C@@](C)(C(=O)N[C@@H](C)C(=O)N[C@@H](Cc2ccc(O)cc2)C(=O)N[C@@H](C)C(N)=O)NC(=O)[C@H](CC(N)=O)NC(=O)[C@H](Cc2ccccc2)NC(=O)[C@H](C)NC(=O)[C@H](CC(=O)O)NC(=O)CNC(=O)[C@H]([C@@H](C)CC)NC1=O)[C@@H](C)CC
Ki (BCL-2): 112 nM | Ki (BCL-XL): 12.6 nM | Ki (MCL-1): 5.3 nM

B13: SEQ ID NO: 1736 (peptide)
peptide: Ac-IWIALALR[R8]IGDAFN[S5]YYA-NH2
modifications: staple 9-16
SMILES: CC[C@H](C)[C@H](NC(C)=O)C(=O)N[C@@H](Cc1c[nH]c2ccccc12)C(=O)N[C@H](C(=O)N[C@@H](C)C(=O)N[C@@H](CC(C)C)C(=O)N[C@@H](C)C(=O)N[C@@H](CC(C)C)C(=O)N[C@@H](CCCNC(=N)N)C(=O)N[C@]1(C)CCCCCCC=CCCC[C@@](C)(C(=O)N[C@@H](Cc2ccc(O)cc2)C(=O)N[C@@H](Cc2ccc(O)cc2)C(=O)N[C@@H](C)C(N)=O)NC(=O)[C@H](CC(N)=O)NC(=O)[C@H](Cc2ccccc2)NC(=O)[C@H](C)NC(=O)[C@H](CC(=O)O)NC(=O)CNC(=O)[C@H]([C@@H](C)CC)NC1=O)[C@@H](C)CC
Ki (BCL-2): 75.8 nM | Ki (BCL-XL): 37.9 nM | Ki (MCL-1): 11.6 nM

These reach a lower Ki (BCL-2). Values come first.

Ki (BCL-2): 28.9 nM | Ki (BCL-XL): 8.6 nM | Ki (MCL-1): 24.1 nM
B2: SEQ ID NO: 1756 (peptide)
peptide: Ac-IWIAQALR[R8]IGDAFN[S5]Y[Cha]A-NH2
modifications: staple 9-16
SMILES: CC[C@H](C)[C@H](NC(C)=O)C(=O)N[C@@H](Cc1c[nH]c2ccccc12)C(=O)N[C@H](C(=O)N[C@@H](C)C(=O)N[C@@H](CCC(N)=O)C(=O)N[C@@H](C)C(=O)N[C@@H](CC(C)C)C(=O)N[C@@H](CCCNC(=N)N)C(=O)N[C@]1(C)CCCCCCC=CCCC[C@@](C)(C(=O)N[C@@H](Cc2ccc(O)cc2)C(=O)N[C@@H](CC2CCCCC2)C(=O)N[C@@H](C)C(N)=O)NC(=O)[C@H](CC(N)=O)NC(=O)[C@H](Cc2ccccc2)NC(=O)[C@H](C)NC(=O)[C@H](CC(=O)O)NC(=O)CNC(=O)[C@H]([C@@H](C)CC)NC1=O)[C@@H](C)CC

Ki (BCL-2): 18.9 nM | Ki (BCL-XL): 9 nM | Ki (MCL-1): 23.4 nM
B3: SEQ ID NO: 1755 (peptide)
peptide: Ac-IWIAQALR[R8]IGDAFN[S5]YLA-NH2
modifications: staple 9-16
SMILES: CC[C@H](C)[C@H](NC(C)=O)C(=O)N[C@@H](Cc1c[nH]c2ccccc12)C(=O)N[C@H](C(=O)N[C@@H](C)C(=O)N[C@@H](CCC(N)=O)C(=O)N[C@@H](C)C(=O)N[C@@H](CC(C)C)C(=O)N[C@@H](CCCNC(=N)N)C(=O)N[C@]1(C)CCCCCCC=CCCC[C@@](C)(C(=O)N[C@@H](Cc2ccc(O)cc2)C(=O)N[C@@H](CC(C)C)C(=O)N[C@@H](C)C(N)=O)NC(=O)[C@H](CC(N)=O)NC(=O)[C@H](Cc2ccccc2)NC(=O)[C@H](C)NC(=O)[C@H](CC(=O)O)NC(=O)CNC(=O)[C@H]([C@@H](C)CC)NC1=O)[C@@H](C)CC

Ki (BCL-2): 22 nM | Ki (BCL-XL): 1.1 nM | Ki (MCL-1): 1.1 nM
B4: SEQ ID NO: 1782 (peptide)
peptide: Ac-I[R8]IAQALR[St]IGDEFN[S8]YYA-NH2
modifications: staple 9-16, 2-9
notes: Row prints Ac-I$r8IAQALRStIGDEFN$s8YYA-NH2

Ki (BCL-2): 17.7 nM | Ki (BCL-XL): 14.5 nM | Ki (MCL-1): 2.3 nM
B6: SEQ ID NO: 1742 (peptide)
peptide: Ac-IWIAQALR[R8]IGDAWN[S5]YYA-NH2
modifications: staple 9-16
SMILES: CC[C@H](C)[C@H](NC(C)=O)C(=O)N[C@@H](Cc1c[nH]c2ccccc12)C(=O)N[C@H](C(=O)N[C@@H](C)C(=O)N[C@@H](CCC(N)=O)C(=O)N[C@@H](C)C(=O)N[C@@H](CC(C)C)C(=O)N[C@@H](CCCNC(=N)N)C(=O)N[C@]1(C)CCCCCCC=CCCC[C@@](C)(C(=O)N[C@@H](Cc2ccc(O)cc2)C(=O)N[C@@H](Cc2ccc(O)cc2)C(=O)N[C@@H](C)C(N)=O)NC(=O)[C@H](CC(N)=O)NC(=O)[C@H](Cc2c[nH]c3ccccc23)NC(=O)[C@H](C)NC(=O)[C@H](CC(=O)O)NC(=O)CNC(=O)[C@H]([C@@H](C)CC)NC1=O)[C@@H](C)CC

Ki (BCL-2): 23.5 nM | Ki (BCL-XL): 15.4 nM | Ki (MCL-1): 3.9 nM
B9: SEQ ID NO: 1758 (peptide)
peptide: Ac-IWIAQALR[R8]IGDAFN[S5]YWA-NH2
modifications: staple 9-16
SMILES: CC[C@H](C)[C@H](NC(C)=O)C(=O)N[C@@H](Cc1c[nH]c2ccccc12)C(=O)N[C@H](C(=O)N[C@@H](C)C(=O)N[C@@H](CCC(N)=O)C(=O)N[C@@H](C)C(=O)N[C@@H](CC(C)C)C(=O)N[C@@H](CCCNC(=N)N)C(=O)N[C@]1(C)CCCCCCC=CCCC[C@@](C)(C(=O)N[C@@H](Cc2ccc(O)cc2)C(=O)N[C@@H](Cc2c[nH]c3ccccc23)C(=O)N[C@@H](C)C(N)=O)NC(=O)[C@H](CC(N)=O)NC(=O)[C@H](Cc2ccccc2)NC(=O)[C@H](C)NC(=O)[C@H](CC(=O)O)NC(=O)CNC(=O)[C@H]([C@@H](C)CC)NC1=O)[C@@H](C)CC

Ki (BCL-2): 19.2 nM | Ki (BCL-XL): 1.6 nM | Ki (MCL-1): 1.6 nM
B10: SEQ ID NO: 1783 (peptide)
peptide: Ac-IWIA[S5]ALR[St]IGDEFN[S8]YYA-NH2
modifications: staple 9-16, 5-9
notes: Row prints Ac-IWIA$ALRStIGDEFN$s8YYA-NH2

Source: patent US20180273587A1 (AILERON THERAPEUTICS, published 2018)
